Assay: yeast display, Sf9 membrane polyspecificity reagent, FACS + sequencing; frameworks hold sequencing errors
How it was run: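 After 36–48 hours of galactose induction, yeast (Saccharomyces cerevisiae BJ5465) displaying a synthetic nanobody library were stained at 4 °C for 1 hour with 10% biotinylated, detergent-solubilized Sf9 membrane reagent. Streptavidin microbeads enriched the stained cells before FACS sorting into low and high (top ~1%) gates on anti-HA and streptavidin fluorescence. Each clone's polyreactivity label reflects its gate of origin.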

Row | Sequence | polyreactivity (PSR sort gate)
1 | QVQLVESGGGLVQAGGSLRLSCAASGTFYYYAMGWYRPAPGKERELVAAIDYSGGSTYYADSVKGRFTISRDNAKNTVYLQMNSLKPEDTAVYYCAYVSVYDFEYWGQGTQVTVSS | high polyreactivity
2 | QVQLVESGGGLVQAGGSLRLSCASSGSTLGVNAMGWYRQAPGKVRELVADISVRTDSTYYADSVKGRFTISRDNAKNTVYLQMNSLKPEDTAVYYCAADVPYYYPGFYSYYDDSDYWGQGTQVTVSS | low polyreactivity
3 | LVQLLESGGGLVQAGGSLRLSCAASGRIFTGYALGWDRQAPGKDRELVASITWRGASTYYADSVKGRFTISRDNAKTTVFLQKNCLNPEDTAVDYCNVGASARKAYEYWGQGTQVTVSS | high polyreactivity
4 | QVQHVESGGGLVQAGGSLRLSSAASGHTFHRYAMGWYRQARWKESELVAAISDSGSSSYYADSVKRRFTISRDYAKYTVYLQMNSLKPEDTALYYCAAVSGFFDQYDYWGQGTQVTVSS | low polyreactivity
5 | QVQLVESVGGLVQAGGSLRLSCAASGRTFVVYAMGWYRQEPGKERELVAAIRVSDGSTYYADSEKGRFTISREISKNTVYLQMNSLNPEDTAVYYCNAESFRGFYYWGQGTQVTVSS | high polyreactivity
6 | QVQLVESGVGLVQAGGSLRLSCAASGRTIKANAMGWYRQAPGKERELVAAISRRGGRTYYADSVKGRFTISRDNAKNTVYLQMNSLKPEDTAVYYCAVRWYSYRQRYNYWGQGTQVTVSS | high polyreactivity
7 | QVQHVESGGGLVQAGGSLRLSCAASGRTFGINALGWYSQAPGNESELVADISGDGGNTYYADSVKGRFTISRDNAKNTVFLQMNSLKPEDTAVYFCATRYEKFRYDYWGQGTQVTVSS | low polyreactivity
8 | QVLLQESGGGLVQAGGSLRLCCAASGYISGDQIMGWYRQAPGKDREFVAGIGNGTNTNYADSVKGRFTTSRDNAKNTVYLQMNSLNPEDTAVYYCPADPSDGSTLAYWGQGTQVTVSS | high polyreactivity
9 | QVQLVESGGGLVQAGGSLRLSCAASGYIFGTYGMGWYRQAPGKERELVAGISRSGTSTYYADSVKGRFTISRDNAKNTVYLQMNSLKPEDTAVYYCAAVSRTRYEYWGQGTQVTVSS | high polyreactivity
10 | QVQLVESGGGLVQAGGSLRLSCAASGSIILGYAMGWYRQAPGKERELVAAIRRSSAGTYYADSVKGRFTISRDNAKNTVYLQMISLKPEDTAVYYCAWYPATYRWAYYYWGQGTQVTVSS | high polyreactivity
11 | QVQLVESGGGLVQAGGSLRLSCAASGITFWYYAMGWYRQAPGKERELVAVISRGGSTYYADSVKGRFTISRDNAKNTVYLQLNSLKPEDTAVYYCAARPRWYTYTRQEYDYWGQGTQVTVSS | high polyreactivity
12 | QVQLVESGGGLVQAGGSHRLSCAASGRTFGYYAMGWYRQAPGKEREFVAAISWSGGSTYYADTVKGRFTISRDNAKNTVYLEMNSLKPEYTAVYYCATDTTYYAGSWYGYWGQGTQVTVSS | low polyreactivity
13 | QVQLVESGGGLVQAGGSLRLSCAASGRIYYRYGMGWYRQAPGKERELVAAISRTGGSTYYADSVKGRFTISRDNAKNTVYLQMNSLIPEDTAVYYCNATSNYRYDYWGQGTQVTVSS | low polyreactivity
14 | QVQLVESGGGLVQAGGSLRLSCAASGRIFIINAMGWYRQAPGKERELVAAITGTGSTYYADSVKGRFTISRDNAKNTVYLQMNSLKPEDTAVYYCAADVSYTYYGFWYDEYYWGQGTQVTVSS | high polyreactivity
15 | QVQLVESGGGLVQAGGSLRLSSAASGNINSWNTMGWYRQAPGKERELVAAITFRGTRTFYADSVKGRFTISRDNAKNTVYLQMNSLKPDDTAVFYCAARYYYSYSLGYDYWGQGTQVTVSS | high polyreactivity
16 | QVQLVESGGGIVQAGGSLRLSCAASGGIFYGYAMGWYRQAPGKERELVAAISSTGGRTYYADSVKGRFTISRDNAKNTVYLQMNSLKPEDTAVYYCAAEDFTRQFEYWGQGTQVTVSS | low polyreactivity
17 | QVQLVESGGGLVQAGGSLRLSCAASGFIFRRYAMGWYRQAPGKERELVAAINYSGTSTYYADSVKGRFTISRDNAKNTVYLQMNSLKPEDTAVYYCNARVGYPPYDYWGQGTQVTVSS | low polyreactivity
18 | QVQLVESGGGLVQAGGSLRLSCAASGSTFTQYVMGWYRQAPGKERDLVAAISDSGSTYYADSVKGRFTISRDNAKNTVYLQMNRLKPEDTAVYFCNADDVDFYYGYGYLDYDYWGQGTQVTVSS | low polyreactivity
19 | QVHLVESGGGLVQAGGSLRLSFAASGRISRIYTMVWYRPAPGKERELVAAITSRGGSTYYADSLKGRFTISRDNAKNTVYFQMNSLNPEDTAVYYCAAGTFWWGYRSKGDEYDYWGQGTKVTVSS | high polyreactivity
20 | QVQLVESGGGLVQAGGSLRLSCAASGYIFRGYVMGWYRQAPGTERELVAGISRSGSSTYYADSVKGRFTISRDNAKNNVYLQMNSLKPEDTAVYYCAAVRSGIEYGYWGQGTQVTVSS | high polyreactivity
21 | QVQLVESGGGLVQAGGSLRLSCAASGYTFRWYVMGWYRQAPGKERELVAAISQSGGDTYYADSVKGRFTISRDNAKNTVYLQMNSLKPEDTAVYYCAVGRVGRFYYWGQGTQVTVSS | high polyreactivity
22 | HAQLQESGGGLVQAGGSLRRSCAASGSIFRFSGMGWYRRAPGKERELVASIGFGSITYYADRVKGRFTISRDHANNTVYLQMNSLKPEDTAVYYCAVQVQDESWLDYWGQGTQVTVSC | low polyreactivity

Row | Sequence | polyreactivity (PSR sort gate)
23 | QVQLVESGGGLVQAGGSLRLSCAASGRIFTKYAMGWYRQAPGKERELVASISSGGSTYYADSVKGRFTISRDNAKNTVYLQMNSLKPEDTAVYYCARSTGTSRRMDDWGQGTQVTVSS | high polyreactivity
24 | QVQLVESGGGLVQAGGSLRLSCAASGSTLRRNAMGWYRQAPGKERELVAAITGSRGSTFYADSVKGRFTISRDNAKNTVYLQMNSLKPEDTAVYYCAVYKWSTRVSQYRYDYWGQGTQVTVSS | high polyreactivity
25 | QVQLVESGGGLVQAGGSLRLSCAASGRTFVGNAMGWYRQAPGKERELVATITGSGGRTYYADSVKGRFTISRDNAKNTVYLQMNSLKPEDTAVYYCAAKRSRYRYDYWGQGTQVTVSS | high polyreactivity
26 | QVQLVESGGGLVQAGGSLRLSCAASGRIYVYYVLGWYRQAPGKERELVAAITYSGGSTYYADSVKGRFTISRDNAKNTVYLQMNSLKPEDTAVYYCNKVDAFGIVRLYYWGQGTQVTVSS | low polyreactivity
27 | QVQLVESGGGLVQAGGSLRLSCAASGSTFRHNVMGWYRQAPGKERELVAAISYSGGSTHYADSVKGRFTISRDNAKNTVYLQMNSLKPEDTAVYYCNRYSYDSHFLYPFRGHDYWGQGTQVTVSS | low polyreactivity
28 | QVQLVESGGGLVQAGGSLRLSCAASGRTSLGYDMGWYRPAPGQEGELVAAITRSGGSTYYADSVKGRFTISRDNAKNTVYLQMNSLKPEDTAVYYCNRVLPHPDGYGVGARGYWGKGTQVTVSS | high polyreactivity
29 | QVQLVESGGGLVQAGGSLRLSCAASGSTFARNAMGWYRQAPGKERELVAAISSSGGRTYYADSVKGRFTISRDNAKNTVYLQMNSLKPEDTAVYSCAARTFGSVHSYRGGYWGQGTQVTVSS | high polyreactivity
30 | QVQLVESGGGLVQAGGSLRLSCAASGSIFDFNAMGWYRQVPGKERELVAAITSGGSTNYADSVKGRFTISRDNAKNTVYLQMNSLKPEDTAVYYCAARPARGASQGGYVRPWWYDYWGQGTQVTVSS | low polyreactivity
31 | QVQLVESGGGLVQAGGSLRLSCAASGSIFRTYTMGWYRQAPGKEREFVAAISRSGGSTYYADSVKGRFTISRDNAKNTVYLQMNSLKPEDTAVYYCNARWGLGSYGYWGQGTQVTVTS | high polyreactivity
32 | QVHLVESGGGLVKAGGSLRISCAASGRTSVLYAMGWYRQAPGKDREFVAAITWNSGSTYYADSVKGRFTISRDNAKHTVYLQMNCLKPEDTAVYYCAADVYYEYDYWGQGTQVTVSS | low polyreactivity
33 | QVQLVESGGGLVQAGGSLRLSCAASGFTFKSYGMGWYRQAPGKERELVAAISKSGGRTYYADSVKGRFTISRDNAKNTVYLQMNSLKPEDTAVYYCAARVYGVDGYGYWGQGTQVTVSS | high polyreactivity
34 | QVQLVESGGGLVQAGGSLRLSCAASGYIFDRNAMGWYRQAPGKERELLAAITKRGGITYYADSVKGRFTISRDNAKNTVYLQMNSLKPEDTAVYYCAADIGYYVYNDYDYWGQGTQVTVSS | low polyreactivity
35 | QVQLVESGGVLVQAGVSLRLSCAASGRTFFRYTMGWYRQAPGKERELVAAISRSDGSTYYADSVKGRFTISRDNAKNTVYLQMNSLKPEDTAVYYCAKSLPSGYYYWGQGTQVTVSS | low polyreactivity
36 | QVQLVESGGRLVQAGGSLRLSCAASGSTFYTNAMGWYRQSPGKEMELVAAITSNGDSTYYADSVKGRFTISRDNAKNTVYLQMNSLKPEDTAVYYCAAREFYGGYDNNYDYWGQGTQVTVSS | low polyreactivity
37 | QVQLVESGGGLVQAGGSLRLSCAASGSTFSYYNMGLYIQATGKERELLAAINRRGDSTYADSVKWRFTISRDNAKNTVYLQMNSLKPEDTAVYDCAADASVGVSGMDYWGQGTQVTVSS | low polyreactivity
38 | QVQLVESGGGLVQAGGSLRLSCAASGRTFNYYVMGWYRRAPGKERELVAAITWRGGRTYADSVKGRFTISRDNAKNTVYLQMNSLKPEDTAVYYCAAYTTKGYGYWGQGTQVTVSS | high polyreactivity
39 | QVQLVESGGGLVQAGGSLRLSCAASGLTFPENAMGWYRQAPGKEREMVASISDSDGITFYADSVKGSFTISRDNAKNTVYLQMNSLKPEDTAVYYCAADVAIAIPFSYDYWGQGSQVTVSS | low polyreactivity
40 | QVQLVESGGGLVQAGGSLRLSCAASGFTFSYYAMGWYRQATGKERELVAAITSGGSTDYADSVKGRFTISRDNAKNTVYLQMNSLKPEDTAVYYCAVTARGGYQGKGTRRIYGYWGHGTQVTVSS | high polyreactivity
41 | QVQLVESGGGLVQAGGSLRLSCAATGFTFASYAMRLYRQAAGKETELVAAITWGTGTTSYADSVKGRFTISRDNAKNTVYLQMNSLKPEDTAVYYCATRFRPITYRRRYDYWGQGTQVTVSS | low polyreactivity
42 | QVQLVESGGGLVQAGGSLRLSCAASGFIFARNVMGWSRQAPGKERELVAAISWSGGSTYYADSVKGRFTISRDNAKNTVYLQMNSLKPEDTAVYYCNKQFPFSKYYIMGYWGQGTQVTVSS | high polyreactivity
43 | QLQLVESGGGLVQAGGSLRLSCAASGFTFYYNALGWYRQAPGKDRELVSSITRSGGRTYYAESVKGRFTISRENAKNTVYLQKNSLKPEDTAVYFCARRYPGGYYWGQGTQVTVSS | high polyreactivity
